We go through eleven substances from PMC12337344.

Experiment [1] has as its target G2L4 RT (Pseudomonas aeruginosa group II intron-like reverse transcriptase), full-length, as crystallised (Pseudomonas aeruginosa). Description: SEC; size-exclusion chromatography comparing G2L4 RT to GII RT (SI Appendix, Fig. S1A).
The target of experiment [2] is G2L4 RT NTE + Thumb mutant (R12A, Y15A, R398A) (Pseudomonas aeruginosa). Description: native gel or EMSA; nondenaturing gel of WT and mutant G2L4 RT proteins; proportions running as monomer or dimer (SI Appendix, Fig. S10C). A general note: A gel shift assay detects complexes by their altered migration in electrophoresis.
Experiment [3] addresses G2L4 RT NTE mutant (R12A, Y15A, R19A) (Pseudomonas aeruginosa). The experiment is described as above.
Experiment [4] concerns the target G2L4 RT Thumb mutant (R397A, R398A, R404A) (Pseudomonas aeruginosa). The description is as above.
For experiment [5], the target named is G2L4 RT with an A instead of an I at the active site (Pseudomonas aeruginosa). The description is as above.
Experiment [6] deals with G2L4 RT with deletion of C-terminal residues 401 to 411 (Pseudomonas aeruginosa). Description: not stated; dimer state of G2L4 RT after removal of the MBP tag and after deletion of residues 401 to 411 (SI Appendix, Fig. S10 A and B).
Experiment [7] addresses G2L4 RT without the N-terminal MBP tag (Pseudomonas aeruginosa). The description is as above.
The target in experiment [8] is MBP-tagged G2L4 RT R190E/I202E (Pseudomonas aeruginosa). Description: SEC; gel filtration profiles of MBP-tagged WT and RT3a mutant G2L4 RTs (SI Appendix, Fig. S4 A and B). Background: Size exclusion chromatography separates by hydrodynamic size, large species first.
Experiment [9] addresses MBP-tagged G2L4 RT R190E/R191E (Pseudomonas aeruginosa). The experiment is described as above.
Experiment [10] deals with MBP-tagged G2L4 RT R191E/I202E (Pseudomonas aeruginosa). The experiment is described as above.
Experiment [11] concerns the target MBP-tagged wild-type G2L4 RT (Pseudomonas aeruginosa). The description is as above.
Experiment [12] shares this target. Description: native gel or EMSA; nondenaturing gel of WT and mutant G2L4 RT proteins; proportions running as monomer or dimer (SI Appendix, Fig. S10C).

One may read the stoichiometry N as a count of units in the complex or per binding partner.

In [1], “G2L4 RT (Pseudomonas aeruginosa group II intron-like reverse transcriptase), full-length, as crystallised (enzyme)” returned a stoichiometry N of 2.

“G2L4 RT NTE + Thumb mutant (R12A, Y15A, R398A) (enzyme)”: the percent of the protein running as monomers in experiment [2] was found to be 54%.

In experiment [3], “G2L4 RT NTE mutant (R12A, Y15A, R19A) (enzyme)” came in with a percent of the protein running as monomers of 12%.

“G2L4 RT Thumb mutant (R397A, R398A, R404A) (enzyme)” displayed a percent of the protein running as monomers in experiment [4] of 35%.

For “G2L4 RT with an A instead of an I at the active site (enzyme)”, the percent of the protein running as monomers in [5] was less than 7%.

With “G2L4 RT with deletion of C-terminal residues 401 to 411 (domain or fragment)”, the stoichiometry N in experiment [6] stood at 2.

In turn, “G2L4 RT without the N-terminal MBP tag (enzyme)” had a stoichiometry N in experiment [7] of 2.

As to MBP-tagged G2L4 RT R190E/I202E (enzyme), in experiment [8], the stoichiometry N worked out at 2.

The substance MBP-tagged G2L4 RT R190E/R191E (enzyme) returned a stoichiometry N in experiment [9] of 2.

For the substance MBP-tagged G2L4 RT R191E/I202E (enzyme), the stoichiometry N in [10] was determined as 2.

Substance MBP-tagged wild-type G2L4 RT (enzyme) came in with a stoichiometry N in [11] of 2. Also, in [12], the percent of the protein running as monomers was less than 7%.
